Results reported in patent US20050112063A1, “Methods for inhibiting vascular permeability” (priority 2002, published 2005).
“Also recorded” adds a separate entry of the source.

Legend:
Mice [1] = assay: Miles assay (induced vessel permeability); type: in vivo
Description: One of the problems with angiogenesis-dependent diseases is increased vessel permeability (due to high levels of VPF) which results in edema and loss of proteins. A decrease in vessel permeability is beneficial in those diseases. […] Briefly, a dye, Evans Blue (1% in PBS), was injected i.v. to anesthesized mice. After 10 min, human recombinant VEGF165 (50 ng/50 μl) was injected intradermally into the back skin. Leakage of protein-bound dye was detected as blue spots on the underside of the back skin surrounding the injection site. After 20 min mice were euthanized. Then, the skin was excised, left in formamide for 5 days to be extracted and the solution read at 620 nm. Putative angiogenesis inhibitors such as free and conjugated TNP-470 were injected daily 3 days (30 mg/kg/day) prior to the VEGF challenge. The same was repeated on tumor-bearing mice to evaluate the effect of angiogenesis inhibitors on tumor vessel permeability.

[2] = test system: Bovine adrenal capillary endothelial cells; assay: BCE proliferation assay; type: cell-based; settings: challenged with bFGF, 72 h; data not shown
Description: Bovine adrenal capillary endothelial cells were seeded on gelatinized plates (15,000/well). Following 24 h incubation, cells were challenged with free and conjugated TNP-470, and bFGF (1 ng/ml) was added to the medium. Cells were counted after 72 h.

[3] = test system: Aortic arches from day-14 chick embryos; assay: Chick aortic ring assay; type: cell-based
Description: Aortic arches were dissected from day-14 chick embryos and cut into cross-sectional fragments, everted to expose the endothelium, and explanted in Matrigel. When cultured in serum-free MCDB-131 medium, endothelial cells outgrow and three-dimensional vascular channel formation occurred within […]. Free and conjugated TNP-470 were added to the culture.

[4] = test system: A2058 human melanoma-bearing mice; assay: Miles assay on tumor-bearing mice (tumor vessel permeability); type: in vivo; settings: 30 mg/kg/day for three days
Description: One of the problems with angiogenesis-dependent diseases is increased vessel permeability (due to high levels of VPF) which results in edema and loss of proteins. A decrease in vessel permeability is beneficial in those diseases. We have found, using the Miles assay ([…], et al., Cancer Res, 56:172-181 (1996)), that free and bound TNP-470 block permeability. Briefly, a dye, Evans Blue (1% in PBS), was injected i.v. to anesthesized mice. After 10 min, human recombinant VEGF165 (50 ng/50 μl) was injected intradermally into the back skin. Leakage of protein-bound dye was detected as blue spots on the underside of the back skin surrounding the injection site. After 20 min mice were euthanized. Then, the skin was excised, left in formamide for 5 days to be extracted and the solution read at 620 nm. Putative angiogenesis inhibitors such as free and conjugated TNP-470 were injected daily 3 days (30 mg/kg/day) prior to the VEGF challenge. The same was repeated on tumor-bearing mice to evaluate the effect of angiogenesis inhibitors on tumor vessel permeability.

lungs = assay: IL-2 induced pulmonary edema, relative weight of the lungs; type: in vivo; settings: 3 days treatment, edema induced with IL-2 i.m. (FIG. 12)
FVB/NJ mice = assay: Evans Blue dye extravasation in skin after intradermal VEGF; type: in vivo
Description: (§1) The antiangiogenic factor (endostatin) was injected intraperitoneally to FVB/NJ mice for 4 days. Immediately after the last injection, mice were anasthesized and received intravenous injection of 100 μl Evans Blue dye (1% in PBS). Subsequently, different amounts of VEGF165, VEGF121 or saline were injected intradermaly. After 20 minutes, mice were sacrificed and skin flap from the back was removed and photographed. Skin samples from the injection sites were excised and incubated in formamide for 5 days in order to extract the dye and O.D. was measured at 620 nm. […] Quantitative analysis of Evans Blue dye extravasation (FIG. 1) confirmed the lower skin capillary permeability of the antiangiogenic factor-treated mice and indicated the weak permeability-inducing effect of VEGF in these mice.

Nude mice = assay: Evans Blue dye extravasation in skin after intradermal PAF; type: in vivo
Description: as §1
In order to test if the effects of the antiangiogenic factor (endostatin) on vascular permeability is VEGF-specific, we have tested the effects of intradermal injection of platelet-activating factor (PAF) in Nude mice that were previously injected with the antiangiogenic factor and in control mice, as described above. […] Quantitative analysis of Evans Blue dye extravasation (FIG. 2) confirmed the lower skin capillary permeability of the antiangiogenic factor-treated mice compared with control and the lack of PAF-induced hyperpermeability in these mice. […]

mice (SCID) = assay: Duration of exposure: Alzet pump, skin vessel permeability with Evans Blue; type: in vivo
Description: In order to test if continuous exposure to the antiangiogenic factor (endostatin) is required to repress blood vessel permeability, mice (SCID) were anesthetized and “Alzet” pumps loaded with the antiangiogenic factor or saline were implanted intraperitoneally. The pumps release 1 μl the antiangiogenic factor per hour. Skin vessel permeability using Evans Blue dye was performed as described above. Saline and the antiangiogenic factor treated mice were examined 2, 3 and 4 days after pump implantation, as described above (FIG. 3). […] In both groups, PAF injection induced higher vessel permeability than saline injection. […] However, in both groups PAF injection induced higher vessel permeability than saline injection. […] Since the tumor vessels are continuously permeabilized and plasma proteins contained within the tumor support its vascularization the anti-permeability effect of the antiangiogenic factor offers a possible mechanism for its anti-tumor activity.

[5] = test system: Bovine capillary endothelial cells (BCE); assay: In vitro diffusion of FITC-dextran through endothelial cell monolayer (Transwells); type: cell-based
Description: The effects of the antiangiogenic factor (endostatin) on skin vessel permeability in vivo were tested in an in vitro diffusion model designed to mimic blood vessel permeability. Bovine capillary endothelial cells (BCE) were seeded in collagen coated inserts of “Transwells” and grown to confluence. The antiangiogenic factor was added every 24 hours. Four days later the inserts were washed with BCE culture medium and the following tracers and permeability regulators were added to the inserts. Half of the inserts received 5 mg/ml FITC-labeled dextran 10 kDa and the other half received 5 mg/ml FITC-labeled dextran 70 kDa. In addition, some inserts received 50 ng/ml VEGF165 or 100 nM PAF. Control inserts received BCE culture medium with fluorescent tracers only. The fluorescence in the lower wells was measured after 10, 20, 30, 45 and 60 minutes by transferring the inserts into new wells.
In order to follow the kinetic of the diffusion process, the flow of the tracer was calculated as fluorescent counts per minute (FIGS. 5 and 6). […] In contrast, the flow in control cells was constant and was lower than that observed in PAF and VEGF165-treated cells.

Mice [6] = assay: Swelling of lung tissue in mice injected with micro-encapsulated VEGF-producing cells; type: in vivo; settings: VEGF producing cells together with endostatin producing cells, 5 days
Description: Dilation of the lung tissue may result in lung dysfunction and development of pulmonary hypertension. Mice injected with micro-encapsulated cells producing VEGF (approximately 0.5×10^6 cells per mouse) developed thickened lung parenchyma 5 days after injection. At a higher magnification we observed generation of several cell layers between the alveoli compared with one layer of cells in mice injected with micro-encapsulated control cells or with micro-encapsulated cells producing endostatin (Endost). […] Moreover, treatment with endostatin reduced the number of cell layers between the alveoli and the lungs of mice that were treated with endostatin appeared similar to control mice. Therefore, endostatin appears to block the swelling of lung tissue and may be used for treatment of pulmonary hypertension.

[7] = test system: Bovine capillary endothelial cells (BCE); assay: Immunostaining of tight junction proteins (β-catenin, occludin, ZO-1); type: cell-based
Description: Bovine capillary endothelial cells (BCE) were cultured in the presence of 0.2, 0.5 and 2 μg/ml human endostatin for three days. The cells were fixed and immunostained with anti-β-catenin, occludin, and ZO-1 antibodies (Zymed Laboratories, CA). The staining was developed using FITC-conjugated secondary antibodies and visualized under fluorescent microscopy. Immunostaining for β-catenin marked the cell borders and was more intense when two cells contacted each other. […] There was no difference in β-catenin staining between 0.5 and 2.0 μg/ml endostatin. […] Similar results were obtained with ZO-1 immunostaining. […] This is the first documentation of the effects of endostatin on tight junctions that may explain, in part, the mechanism of its antiangiogenic activities. Similar experiments were performed in which BCE were incubated in the presence and absence of 0.5 μg/ml endostatin for 3 days followed by stimulation with PAF for 20 minutes. The cells were fixed and immunostained with anti-α-catenin, occludin, and ZO-1 antibodies (Zymed Laboratories, CA), as described above.

Humans = assay: Histamine-induced wheal and flare test in skin; type: in vivo; settings: intradermal histamine
Description: Antiangiogenic treatment has entered into clinical trials recently. Molecules that are tested in phase 1 and 2 clinical trials include endostatin, angiostatin, TNP-470, thalidomide, anti-VEGF antibodies, PTK787, SU-5416, SU-6668 and others. […] Mice that received endostatin for several days had lower diffusion of Evans blue from the skin capillaries in response to intradermal VEGF and PAF injection compared with normal mice. The existing test of histamine-induced wheal and flare in skin can be used in order to test bioactivity of endostatin and other antiangiogenic factors. Intradermal injection of histamine leads to the formation of local adema ([…]) due to blood vessel hyperpermiability. […] This test will serve as an early surrogate marker for the bioactivity of endostatin and other antiangiogenic factors and help to determine the treatment's efficiency in individual patients.

Molecule: O=C1CCC(N2C(=O)c3ccccc3C2=O)C(=O)N1 (centres unmarked) [Thalidomide]
- vessel permeability (Mice [1]; FIGS. 9A-9D): no effect

Molecule: CO[C@@H]1[C@H](OC(=O)NC(=O)CCl)CC[C@]2(CO2)[C@H]1[C@@]1(C)O[C@@H]1CC=C(C)C [TNP-470]
- BCE cell growth [2]: inhibited
- concentration that showed efficacy (reduced number and length of vascular sprouts) [3]: 50 pg/mL
- VEGF, PAF and histamine-induced vascular leakage (Mice [1]; Miles assay, compared to control (FIGS. 8A-8E)): prevents
- tumor vessel permeability [4]: decreased
- pulmonary edema (relative weight of the lungs) (lungs): reduces pulmonary edema

B1: endostatin (protein, UniProt P39060 1572-1754, looked up)
Endostatin: HSHRDFQPVLHLVALNSPLSGGMRGIRGADFQCFQQARAVGLAGTFRAFLSSRLQDLYSIVRRADRAAVPIVNLKDELLFPSWEALFSGSEGPLKPGARIFSFDGKDVLRHPTWPQKSVWHGSDPNGRRLTESYCETWRTEAPSATGQASSLLGGRLLGQSAASCHHAYIVLCIENSFMTASK
modifications: Endostatin
notes: antiangiogenic factor; human endostatin used on BCE cells
- Evans Blue dye leakage (skin capillary permeability) (FVB/NJ mice; injected intraperitoneally for 4 days, vs control): overall lower dye leakage than the control
- induction of hyperpermeability by VEGF injection (FVB/NJ mice; intradermal VEGF165 or VEGF121, 4 days treatment): minor induction of hyperpermeability
- PAF-induced vascular permeability (Nude mice; intradermal PAF): repressed
- vascular permeability (skin flaps, Evans Blue) (Nude mice; vs control): inhibits vascular permeability
- treatment time required to reduce skin vessel permeability (mice (SCID); Alzet pump intraperitoneally): at least 3 days
- blood vessel permeability in response to PAF, saline vs treated mice (mice (SCID); day two after pump implantation): no significant difference
- vessel permeability in saline treated mice compared with treated mice (mice (SCID); days three and four, saline and PAF injections): significantly higher vessel permeability than in the antiangiogenic factor treated mice
- flow of the tracer (fluorescent counts per minute) ([5]; 10 kDa and 70 kDa dextrans, vs control cells): significant reduced flow; also recorded: lower than that of control cells
- course of tracer flow over time ([5]; 60 minutes period): constant flow
- sum of fluorescent count over 60 minutes ([5]; 4 days pre-treatment, vs control, VEGF165-treated and PAF-treated cells, 10 kDa and 70 kDa dextran): significantly lower fluorescent counts
- reduction in fluorescent counts, 70 kDa compared with 10 kDa dextran ([5]; pre-treated BCE cells): more pronounced in the diffusion of 70 kDa dextran
- accumulation of extracellular matrix in lung tissue (Mice [6]): no accumulation of extracellular matrix
- cell layers between the alveoli (Mice [6]): fewer cell layers
- PAF-induced reduction of staining intensity of β-catenin, occludin and ZO-1 ([7]; 0.5 μg/ml for 3 days, then PAF for 20 minutes): not in endostatin-treated cells
- ZO-1 immunostaining ([7]; 0.2-2.0 μg/ml, three days): Cells boundaries were only visible in the presence
- β-catenin staining, 0.5 versus 2.0 μg/ml ([7]; three days): no difference
- histamine-induced zone of edema (Humans): reduced zone of edema
